Seven molecules from patent US20220267379A1 (published 2022) can be followed below.

The target in test [1] is T1, mouse serum albumin (MSA) (mouse, UniProt P07724 25-608). The test can be described thus: fluorescence polarization. Background: Fluorescence polarisation rises when a labelled molecule tumbles more slowly, as on binding a larger partner.
The target in test [2] is human serum albumin (HSA) (human, UniProt P02768 25-609). The test can be described thus: fluorescence polarization; human serum dilution.
Test [3] concerns the target PK. The test can be described thus: enzyme inhibition.
Test [4] has as its target plasmin. The test can be described thus: enzyme inhibition.
Test [5] has as its target tPA. The test can be described thus: enzyme inhibition.
Test [6] deals with uPA. The test can be described thus: enzyme inhibition.
Test [7] concerns the target thrombin. The test can be described thus: enzyme inhibition.
Test [8] has as its target T1, mouse serum albumin (MSA).
In test [9] the target is T2, FXIIa (Factor XIIa) (human, UniProt P00748 373-615).
T2 chain: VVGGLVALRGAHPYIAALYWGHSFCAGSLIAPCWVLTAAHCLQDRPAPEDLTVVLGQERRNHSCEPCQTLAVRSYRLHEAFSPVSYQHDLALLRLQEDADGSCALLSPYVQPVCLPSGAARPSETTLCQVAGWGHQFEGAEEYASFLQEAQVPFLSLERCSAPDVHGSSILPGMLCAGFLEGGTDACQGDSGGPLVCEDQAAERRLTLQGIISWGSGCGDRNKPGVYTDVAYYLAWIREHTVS

For test [10], the target named is human Kallikrein-related peptidase 5 (hKLK5) (human, UniProt Q9Y337 67-293). The test can be described thus: enzyme inhibition.
human Kallikrein-related peptidase 5 (hKLK5), sequence (Q9Y337 67-293): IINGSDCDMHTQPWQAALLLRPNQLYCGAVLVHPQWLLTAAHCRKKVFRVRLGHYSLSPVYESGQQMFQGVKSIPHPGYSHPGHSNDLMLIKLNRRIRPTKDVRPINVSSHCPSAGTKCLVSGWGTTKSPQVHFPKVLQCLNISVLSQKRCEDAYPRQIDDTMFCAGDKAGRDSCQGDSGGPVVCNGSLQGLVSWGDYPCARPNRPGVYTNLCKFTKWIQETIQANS
For test [11], the target named is trypsin (human). The test can be described thus: enzyme inhibition.

Like-named read-outs stand apart in the source and are kept apart here. Positions of bridges follow the written chain, without caps; N, C: chain ends. Non-standard residues stand in square brackets, D forms with d. Primed or numbered codes have the meaning given here. Chains are numbered I, II in the order given. No end group written: not given here. *: point of attachment. Palmitoyl = CCCCCCCCCCCCCCCC(=O)*; PEG2″ = not defined here

T1 sequence (P07724 25-608): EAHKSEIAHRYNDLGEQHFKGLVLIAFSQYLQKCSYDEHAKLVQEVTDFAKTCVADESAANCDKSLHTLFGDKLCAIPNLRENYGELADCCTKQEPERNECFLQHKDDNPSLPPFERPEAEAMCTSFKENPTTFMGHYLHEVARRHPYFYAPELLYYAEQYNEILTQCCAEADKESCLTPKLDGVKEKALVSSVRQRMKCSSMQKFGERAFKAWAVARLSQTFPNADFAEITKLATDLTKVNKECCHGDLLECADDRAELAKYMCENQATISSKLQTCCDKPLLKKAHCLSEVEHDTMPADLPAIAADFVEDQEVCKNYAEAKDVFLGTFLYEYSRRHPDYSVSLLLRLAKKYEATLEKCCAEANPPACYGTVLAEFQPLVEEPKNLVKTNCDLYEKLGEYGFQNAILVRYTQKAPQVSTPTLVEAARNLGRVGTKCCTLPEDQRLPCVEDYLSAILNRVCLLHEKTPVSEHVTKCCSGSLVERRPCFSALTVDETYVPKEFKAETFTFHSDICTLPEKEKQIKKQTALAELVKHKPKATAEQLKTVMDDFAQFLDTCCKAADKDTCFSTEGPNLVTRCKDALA

B1: SSSKSSS-tag (peptide)
peptide: SSSKSSS
modifications: not fully specified (residue 4, N-terminus); also: fluorescein as in the albumin tag
A word on the Kd: it is the concentration at which binding is half-saturated. Molecule B1 returned a Kd in test [1] of 10.1 µM.

B2: KLK5 inhibitor 035-tag (C-terminal albumin tag conjugate of 035) (peptide)
peptide 1: GCTRQYPCGKG
peptide 2: EYEK(Palmitoyl)EYE
modifications: bridge I:2-I:8; not fully specified (N-terminus, C-terminus, bridges); also: albumin tag (chain 2) joined via PEG2 to side chain of Lys10 of chain 1, tag end used not given here, N-terminal fluorescein via PEG2, chain not given here
B2 returned a Kd in test [1] of 7 µM.

B3: N-terminal albumin tag conjugate of KLK5 inhibitor 035 (peptide)
peptide 1: EYEK(Palmitoyl)EYE[PEG2″]
peptide 2: GCTRQYPC
modifications: bridge II:2-II:8; not fully specified (N-terminus, bridges); also: tag C-terminus joined through PEG2 to inhibitor N-terminus (one linear molecule)
With B3, the affinity in test [2], expressed as Kd, was 0.118 µM.

A word on the Ki: it is a measure of affinity in units of concentration, obtained from inhibition or displacement. Low values mean a stronger hold on the target, high ones a looser hold on the target. For the molecule GCTRQYPC (linker 2-8 via 1,3‑dibromoacetone) [peptide 035], the Ki in test [3], in [4], in test [5], in test [6] and in [7] was greater than 100 µM each time.

B4: N-terminal albumin tag conjugate of KLK7 inhibitor 096 (peptide)
peptide 1: EYEK(Palmitoyl)EYE[PEG2″]
peptide 2: PCLYLARCS
modifications: bridge II:2-II:8; not fully specified (N-terminus, bridges); also: tag C-terminus joined through PEG2 to inhibitor N-terminus (one linear molecule)
For B4, in test [2], the Kd was determined as 0.168 µM.

EYEK(Palmitoyl)EYE-fluorescein [albumin tag with fluorescein at the C-terminus (tag-F)] returned a Kd in test [8] of 7.9 µM.

Regarding GCTRQYPC (linker 2-8 via 1,3‑dibromoacetone) [peptide 035 (lead KLK5 inhibitor)], the Ki in test [9] worked out at 43 µM; in test [10], 0.01 µM; in test [11], 60 µM.
